One data set concerns the target T1, fdeE (Herbaspirillum seropedicae, UniProt D8J0W9).
T1 construct: gene Hsero_1007; codon-optimised ORF in pRhaBAD_12, expressed in E. coli BL21(DE3), purified by Ni IMAC (HisTrap), desalted
T1 sequence (D8J0W9 1-376): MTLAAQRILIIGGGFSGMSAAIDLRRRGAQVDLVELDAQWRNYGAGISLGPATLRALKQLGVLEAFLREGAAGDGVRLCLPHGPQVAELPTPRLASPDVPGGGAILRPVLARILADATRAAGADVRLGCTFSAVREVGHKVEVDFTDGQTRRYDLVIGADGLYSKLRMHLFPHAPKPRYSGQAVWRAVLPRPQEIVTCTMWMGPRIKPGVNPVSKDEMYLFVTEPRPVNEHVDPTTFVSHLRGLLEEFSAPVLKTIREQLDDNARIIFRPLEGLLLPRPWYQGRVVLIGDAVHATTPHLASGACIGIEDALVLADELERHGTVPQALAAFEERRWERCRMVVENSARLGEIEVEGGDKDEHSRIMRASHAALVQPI
Put plainly: UV-Vis spectrum of purified enzyme. The data set is classed as binding. The note with it: FAD co-purified with the enzyme; none added.

Substrate in the data set “purified protein”: O=c1cc(-c2ccc(O)cc2)oc2cc(O)cc(O)c12
The experiment in a line: purified protein. The note with it: 1 mM NADPH, GDH/glucose regeneration, 25 mM DTT, 25 mM sodium phosphate pH 7.5, initial substrate 0.05 mM, from a single progress curve.

Substrate in data set [1]: O=c1cc(-c2ccc(O)c(O)c2)oc2cc(O)cc(O)c12
Put plainly: UPLC-DAD product-formation progress curve. Particulars: 1 mM NADPH, GDH/glucose regeneration, 25 mM DTT, 25 mM sodium phosphate pH 7.5, initial substrate 0.05 mM, from a single progress curve. Type of data set: biochemical, Herbaspirillum seropedicae. The source says: (§1) UPLC-DAD product-formation progress curve on fdeE

Substrate in data set [2]: O=c1cc(-c2ccccc2)oc2cc(O)cc(O)c12
The experiment in a line: UPLC-DAD product-formation progress curve. The note with it: 1 mM NADPH, GDH/glucose regeneration, 25 mM DTT, 25 mM sodium phosphate pH 7.5, initial substrate 0.05 mM, from a single progress curve. The data set is classed as biochemical, Herbaspirillum seropedicae.
From the text: as §1

Substrate in data set [3]: O=C1C[C@@H](c2ccc(O)cc2)Oc2cc(O)cc(O)c21
The experiment in a line: UPLC-DAD product-formation progress curve. The note with it: 1 mM NADPH, GDH/glucose regeneration, 25 mM DTT, 25 mM sodium phosphate pH 7.5, initial substrate 0.05 mM, from a single progress curve. The data set is classed as biochemical, Herbaspirillum seropedicae.
From the text: as §1

Substrate in data set [4]: O=c1c(O)c(-c2ccc(O)c(O)c2)oc2cc(O)cc(O)c12
Put plainly: UPLC-DAD product-formation progress curve. The data set is classed as biochemical, Herbaspirillum seropedicae. Particulars: 1 mM NADPH, GDH/glucose regeneration, 25 mM DTT, 25 mM sodium phosphate pH 7.5, initial substrate 0.05 mM, from a single progress curve.
From the text: as §1

As to `Cc1cc2nc3c(=O)[nH]c(=O)nc-3n(C[C@H](O)[C@H](O)[C@H](O)COP(=O)(O)OP(=O)(O)OC[C@H]3O[C@@H](n4cnc5c(N)ncnc54)[C@H](O)[C@@H]3O)c2cc1C` [FAD], on fdeE, the “UV-Vis spectrum of purified enzyme” value is “UV–Vis spectrium of purified fdeE with absorption spectra characteristic for FAD absorbance”.

B1: fdeE (Herbaspirillum seropedicae SmR1) (protein)
chain: MTLAAQRILIIGGGFSGMSAAIDLRRRGAQVDLVELDAQWRNYGAGISLGPATLRALKQLGVLEAFLREGAAGDGVRLCLPHGPQVAELPTPRLASPDVPGGGAILRPVLARILADATRAAGADVRLGCTFSAVREVGHKVEVDFTDGQTRRYDLVIGADGLYSKLRMHLFPHAPKPRYSGQAVWRAVLPRPQEIVTCTMWMGPRIKPGVNPVSKDEMYLFVTEPRPVNEHVDPTTFVSHLRGLLEEFSAPVLKTIREQLDDNARIIFRPLEGLLLPRPWYQGRVVLIGDAVHATTPHLASGACIGIEDALVLADELERHGTVPQALAAFEERRWERCRMVVENSARLGEIEVEGGDKDEHSRIMRASHAALVQPI
notes: codon-optimised ORF in pRhaBAD_12, expressed in E. coli BL21(DE3), purified by Ni IMAC (HisTrap), desalted
For the molecule B1, the Km (in general, the substrate concentration at which the rate is half of its maximum) in “purified protein” is 20.2 µM; in data set [1], 51.8 µM; in data set [2], 431 µM; in data set [3] it was 0.422 µM; in data set [4] it was 14.9 µM. For the same molecule, the maximal velocity (Vmax) (in general, the top rate of the reaction or transport when substrate is in excess) in the data set “purified protein” came to 4.02 µM/min; in data set [1], 6.12 µM/min; in data set [2] it was 88.2 µM/min; in data set [3], 2.09 µM/min; in data set [4], 0.512 µM/min. The kcat (as a rule, the maximal rate divided by the concentration of active sites) was determined as 0.0532 s⁻¹ in “purified protein”; 0.0811 s⁻¹ in data set [1]; 1.17 s⁻¹ in data set [2]; 0.0277 s⁻¹ in data set [3]; 0.00678 s⁻¹ in data set [4]. Also, the kcat/Km (commonly the turnover number divided by the Michaelis constant) in the data set “purified protein” is 2630 M⁻¹ s⁻¹; in data set [1], 1570 M⁻¹ s⁻¹; in data set [2] it was 2720 M⁻¹ s⁻¹; in data set [3], 65500 M⁻¹ s⁻¹; in data set [4], 450 M⁻¹ s⁻¹.
